Measurements published in article PMC4752584, “The C repressor of the P2 bacteriophage” (Journal of Biomolecular Nmr, 2015).

Molecular target: the molecule itself
Assay: NMR solution structure; 13C,15N-labelled P2 C at 6 mg/ml in 10 mM Na-phosphate pH 7.0, 150 mM NaCl, 10 % D2O; 13C- and 15N-NOESY-HSQC, 150 ms mixing time, 310 K, 900 MHz; CYANA2.1; homodimer interface found with aid from the crystal structure 2XCJ

B1: C-repressor of bacteriophage P2 (natural protein)
chain: MSNTISEKIVLMRKSEYLSRQQLADLTGVPYGTLSYYESGRSTPPTDVMMNILQTPQFTKYTLWFMTNQIAPEFGQIAPALAHFGQNETTSPHSGQKTG
notes: C repressor of bacteriophage P2, a 99 amino acid protein; wildtype; signals of residues up to 99 are reported; Uniformly 13C,15N labelled for the structure (grown in M9 with 13C-glucose and 15N-NH4Cl); No tag is mentioned; also called P2 C; P2C; source: E. coli BL21(DE3) with plasmid pEE679, purified (DEAE flow-through, HiTrap Heparin, Superdex 200)
B1: binds.
